The test system of the series is Bacillus subtilis. In words: cleaved RNA product abundance (RNA/gDNA barcode ratio) relative to median wild-type variant (ratio to wild type); higher = more accumulation of the downstream cleavage product. The settings on record: cleavage site: cggR-gapA (positions -7 to +36 mutated). The procedure, abridged:
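B. subtilis strains with chromosomally integrated reporter mRNAs (truncated aprE or tetM) holding barcoded, mutagenized RNase Y cleavage-site windows grew in LB at 37°C from OD600 0.0003 to 0.3. Cleaved product abundance is each construct's RNA:gDNA barcode ratio, scaled to the median construct with the unmutated site. It came from sequencing barcodes of gel-selected, reverse-transcribed cleaved RNA and of genomic DNA.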

[1] abbreviates: experiment (reporter, strain, medium): exp 2b: truncated aprE reporter, strain BJT200.
[2] abbreviates: experiment (reporter, strain, medium): exp 4a: truncated aprE reporter, strain BJT201 with 2% xylose (RNase J1 expressed).
Setting [3] is: experiment (reporter, strain, medium): exp 6: tetM reporter, strain 168.

The values below come from the supplement of paper PMC11780869.

With “ACAGACGAAGGAGCCGCACAGAAGTTATTAACGGATGAATAATCCCTCAATATAAATATCTCTCACTTATTTAAA”, the “cleaved RNA product abundance” value reads like this: under setting [1], 0.121; under setting [2], 0.197.
The corresponding values for “ACAGACGAAGGAGCCGCACAGAAGTTATTAAGAGATGAATAATCCCTCAATATAAATATCTCTCACTTATTTAAA” are 0.134 and 0.215.
Turning to “ACAGACGAAGGAGCCGCACAGAAGTTATTAAGAGATGAATAATCCCTCAATATAAATTTCTCTCACTTATTTAAA”, the “cleaved RNA product abundance” value under setting [2] was determined as 0.113.
As for “ACAGACGAAGGAGCCGCACAGAAGTTATTAAGGAATGAATAATCCCTCAATATAAATATCTCTCACTTATTTAAA”, under setting [2], the “cleaved RNA product abundance” value came out at 0.143.
As to “ACAGACGAAGGAGCCGCACAGAAGTTATTAAGGGAAGAATAATCCCTCAATATAAATATCTCTCACTTATTTAAA”, the “cleaved RNA product abundance” value reads like this: under setting [1], 0.452; under setting [2], 0.573.
Consider “ACAGACGAAGGAGCCGCACAGAAGTTATTAAGGGATGAACAATCCCTCAATATAAATATCTCTCACTTATTTAAA”, for which, under setting [2], the “cleaved RNA product abundance” value amounted to 0.614.
“ACAGACGAAGGAGCCGCACAGAAGTTATTAAGGGATGAATAAACCCTCAATATAAATATCTCTCACTTATTTAAA”: the “cleaved RNA product abundance” value runs as follows: under setting [1], 0.294; under setting [2], 0.34.
Turning to “ACAGACGAAGGAGCCGCACAGAAGTTATTAAGGGATGAATAATACCTCAATATAAATATCTCTCACTTATTTAAA”, the “cleaved RNA product abundance” value under setting [1] amounted to 0.118.
In the case of “ACAGACGAAGGAGCCGCACAGAAGTTATTAAGGGATGAATAATCACTCAATATAAATATCTCTCACTTATTTAAA”, the “cleaved RNA product abundance” value under setting [2] is 0.125.
Consider “ACAGACGAAGGAGCCGCACAGAAGTTATTAAGGGATGAATAATCCCTAAATATAAATATCTCTCACTTATTTAAA”, for which the “cleaved RNA product abundance” value under setting [2] stood at 0.586.
Still for that read-out and setting: under “ACAGACGAAGGAGCCGCACAGAAGTTATTAAGGGATGAATAATCCCTCAAAATAAATATCTCTCACTTATTTAAA” stands 0.337.
Consider “ACAGACGAAGGAGCCGCACAGAAGTTATTAAGGGATGAATAATCCCTCAACATAAATATCTCTCACTTATTTAAA”, for which the “cleaved RNA product abundance” value is, setting by setting: under setting [1], 0.198; under setting [2], 0.294.
For “ACAGACGAAGGAGCCGCACAGAAGTTATTAAGGGATGAATAATCCCTCAATAAAAATATCTCTCACTTATTTAAA”, the “cleaved RNA product abundance” value under setting [2] was 0.116.
With “ACAGACGAAGGAGCCGCACAGAAGTTATTAAGGGATGAATAATCCCTCAATATAAAGATCTCTCACTTATTTAAA”, the “cleaved RNA product abundance” value under setting [2] was 0.549.
As to “ACAGACGAAGGAGCCGCACAGAAGTTATTAAGGGATGAATAATCCCTCAATATAAATATCTCTCACTTATTTAAA”, the “cleaved RNA product abundance” value was found to be 0.962 under setting [1], 1.04 under setting [2] and 1.07 under setting [3].
For “ACAGACGAAGGAGCCGCACAGAAGTTATTAAGGGATGAATAATCCCTCAATATACATATCTCTCACTTATTTAAA”, under setting [2], the “cleaved RNA product abundance” value came to 1.13.
“ACAGACGAAGGAGCCGCACAGAAGTTATTAAGGGATGAATAATCCCTGAATATAAATATCTCTCACTTATTTAAA”: under setting [2], the “cleaved RNA product abundance” value was 0.523.
On the same count and under the same terms, under “ACAGACGAAGGAGCCGCACAGAAGTTATTAAGGGATGAATAATCCCTTAATATAAATATCTCTCACTTATTTAAA” stands 0.633.
“ACAGACGAAGGAGCCGCACAGAAGTTATTAAGGGATGAATAATCCTTCAATATAAATATCTCTCACTTATTTAAA”: the “cleaved RNA product abundance” value was found to be 0.461 under setting [1] and 0.469 under setting [2].
For “ACAGACGAAGGAGCCGCACAGAAGTTATTAAGGGATTAATAATCACTCAATATAAATATCTCTCACTTATTTAAA”, under setting [2], the “cleaved RNA product abundance” value stood at 0.293.
As to “ACAGACGAAGGAGCCGCACAGAAGTTATTAAGGGATTAATAATCCCTCAATATAAATATCTCTCACTTATTTAAA”, the “cleaved RNA product abundance” value under setting [2] amounted to 0.962.
Same read-out and setting: under “ACAGACGAAGGAGCCGCACAGAAGTTATTAAGGGTTGAATAATCCCTCAATATAAATATCTCTCACTTATTTAAA” stands 0.473.
For the sequence “ACAGACGAAGGAGCCGCACAGAAGTTATTAAGGTATGAATAATCCCTCAATATAAATATCTCTCACTTATTTAAA”, the “cleaved RNA product abundance” value runs as follows: under setting [1], 0.102; under setting [2], 0.198.
As for “ACAGACGAAGGAGCCGCACAGAAGTTATTAAGTGATGAATAATCCCTCAATATAAATATCTCTCACTTATTTAAA”, the “cleaved RNA product abundance” value under setting [1] stood at 0.106 and the “cleaved RNA product abundance” value under setting [2] amounted to 0.126.
With “ACAGACGAAGGAGCCGCACAGAAGTTATTAATGGATGAATAATCCCTCAATATAAATATCTCTCACTTATTTAAA”, the “cleaved RNA product abundance” value runs as follows: under setting [1], 0.103; under setting [2], 0.165.
“ACAGACGAAGGAGCCGCACAGAAGTTATTCAGGGATGAATAATCCCTCAATATAAATATCTCTCACTTATTTAAA”: under setting [2], the “cleaved RNA product abundance” value was 1.28.
As for “ACAGACGAAGGAGCCGCACAGAAGTTATTTAGGGATGAATAATCCCTCAATATAAATATCTCTCACTTATTTAAA”, the “cleaved RNA product abundance” value under setting [2] came to 0.843.
Still for that read-out and setting: under “ACAGACGAAGGAGCCGCACAGAAGTTCTTAAGGGATGAATAATCCCTCAATATAAATATCTCTCACTTATTTAAA” stands 0.275.
Regarding “ACAGACGAAGGAGCCGCACAGAATTTATTAAGGGATGAATAATCCCTCAATATAAATATCTCTCACTTATTTAAA”, the “cleaved RNA product abundance” value by setting is: under setting [1], 0.544; under setting [2], 0.488.
“ACAGACGAAGGAGCCGCACAGATGTTATTAAGGGATGAATAATCCCTCAATATAAATATCTCTCACTTATTTAAA”: the “cleaved RNA product abundance” value under setting [2] was 1.11.
As for “ACAGACGAAGGAGCCGCACATAAGTTATTAAGGGATGAATAATCCCTCAATATAAATATCTCTCACTTATTTAAA”, the “cleaved RNA product abundance” value under setting [1] came to 0.732 and the “cleaved RNA product abundance” value under setting [2] came to 1.07.
The corresponding values for “ACAGACGAAGGAGCCGCAGAAAAGTTATTAAGGGATGAATAATCCCTCAATATAAATATCTCTCACTTATTTAAA” are 1.14 and 1.24.
“ACAGACGAAGGAGCCGCAGACAAGTTATTAAGGGATGAATAATCCCTCAATATAAATATCTCTCACTTATTTAAA”: the “cleaved RNA product abundance” value under setting [2] was 0.844.
Take “ACAGACGAAGGAGCCGCAGAGAAGTTAATAAGGGATGAATAATCCCTCAATATAAATATCTCTCACTTATTTAAA”: under setting [2], the “cleaved RNA product abundance” value stood at 0.449.
On the same count and under the same terms, the value for “ACAGACGAAGGAGCCGCAGAGAAGTTATAAAGGGATGAATAATCCCTCAATATAAATATCTCTCACTTATTTAAA” was 0.295; that for “ACAGACGAAGGAGCCGCAGAGAAGTTATCAAGGGATGAATAATCCCTCAATATAAATATCTCTCACTTATTTAAA” was 0.328.
Regarding “ACAGACGAAGGAGCCGCAGAGAAGTTATTAAAGGATGAATAATCCCTCAATATAAATATCTCTCACTTATTTAAA”, the “cleaved RNA product abundance” value turned out to be 0.128 under setting [1] and 0.227 under setting [2].
The corresponding values for “ACAGACGAAGGAGCCGCAGAGAAGTTATTAAGAGATGAATAATCCCTCAATATAAATATCTCTCACTTATTTAAA” are 0.0994 and 0.118.
As to “ACAGACGAAGGAGCCGCAGAGAAGTTATTAAGCGATGAATAATCCCTCAATATAAATATCTCTCACTTATTTAAA”, the “cleaved RNA product abundance” value under setting [2] was 0.171.
The same measure, in the same setting: the value for “ACAGACGAAGGAGCCGCAGAGAAGTTATTAAGGAATGAATAATCCCTCAATATAAATATCTCTCACTTATTTAAA” was 0.143; that for “ACAGACGAAGGAGCCGCAGAGAAGTTATTAAGGGATGAATAATCCATCAATATAAATATCTCTCACTTATTTAAA” was 0.178; that for “ACAGACGAAGGAGCCGCAGAGAAGTTATTAAGGGATGAATAATCCCACAATATAAATATCTCTCACTTATTTAAA” was 0.235.
Take “ACAGACGAAGGAGCCGCAGAGAAGTTATTAAGGGATGAATAATCCCTAAATATAAATATCTCTCACTTATTTAAA”: the “cleaved RNA product abundance” value under setting [2] came to 0.755.
Regarding “ACAGACGAAGGAGCCGCAGAGAAGTTATTAAGGGATGAATAATCCCTCAATATAAATAACTCTCACTTATTTAAA”, the “cleaved RNA product abundance” value came out at 0.518 under setting [1] and 0.451 under setting [2].
On to “ACAGACGAAGGAGCCGCAGAGAAGTTATTAAGGGATGAATAATCCCTCAATATAAATATCTCTCACTTATTTAAA”, for which the “cleaved RNA product abundance” value under setting [1] turned out to be 0.839, the “cleaved RNA product abundance” value under setting [2] was 0.799 and the “cleaved RNA product abundance” value under setting [3] stood at 0.208.
As for “ACAGACGAAGGAGCCGCAGAGAAGTTATTAAGGGATGAATAATCCCTCAGTATAAATATCTCTCACTTATTTAAA”, the “cleaved RNA product abundance” value under setting [2] was determined as 0.337.
The same measure, in the same setting: under “ACAGACGAAGGAGCCGCAGAGAAGTTATTAAGGGATGAATAATCCGTCAATATAAATATCTCTCACTTATTTAAA” stands 0.294.
For “ACAGACGAAGGAGCCGCAGAGAAGTTATTAAGGGATGATTAATCCCTCAATATAAATATCTCTCACTTATTTAAA”, under setting [1], the “cleaved RNA product abundance” value is 0.638.
On to “ACAGACGAAGGAGCCGCAGAGAAGTTATTAAGGGATTAATAATCCCTCAATATAAATATCTCTCACTTATTTAAA”, for which the “cleaved RNA product abundance” value under setting [2] is 0.696.
Same read-out and setting: under “ACAGACGAAGGAGCCGCAGAGAAGTTATTAAGGGCTGAATAATCCCTCAATATAAATATCTCTCACTTATTTAAA” stands 0.694; under “ACAGACGAAGGAGCCGCAGAGAAGTTATTAAGGTATGAATAATCCCTCAATATAAATATCTCTCACTTATTTAAA”, 0.137.
As to “ACAGACGAAGGAGCCGCAGAGAAGTTATTAAGTGATGAATAATCCCTCAATATAAATATCTCTCACTTATTTAAA”, the “cleaved RNA product abundance” value under setting [2] turned out to be 0.161.
“ACAGACGAAGGAGCCGCAGAGAAGTTATTAATGGATGAATAATCCCTCAATATAAATATCTCTCACTTATTTAAA”: the “cleaved RNA product abundance” value under setting [2] turned out to be 0.184.
Still for that read-out and setting: under “ACAGACGAAGGAGCCGCAGAGAAGTTTTTAAGGGATGAATAATCCCTCAATATAAATATCTCTCACTTATTTAAA” stands 0.37.
